Assay: soluble on expression in E. coli; label from the status in PepcDB or PDB records

| Sequence | soluble on expression in E. coli |
| --- | --- |
| AAAKPADKALQAQLPEMALPREAAPRLDGLAAVLPQIHPAEAGKPAESFSLALPPSQPESWSGKLQAALGERLQAMPAQNMDRATLRLDPPSLGTLEISLRHQAGALTVELTASHGEVVRQLQGIGEALRQDLGGRQYTQVAVEVREGM | not soluble |
| AAGTVFTTVEDLGSKILLTCSLNDSATEVTGHRWLKGGVVLKEDALPGQKTEFKVDSDDQWGEYSCVFLPEPMGTANIQLHGPPRVKAVKSSEHINEGETAMLVCKSESVPPVTDWAWYKITDSEDKALMNGSESRFFVSSSQGRSELHIENLNMEADPGQYRCNGTSSKGSDQAIITLRVRSH | soluble |
| AASDSAQLKSAREDIKELLKTKFCHPIMVRLGWHDAGTYNKNIEEWPQRGGANGSLRFDVELKHGANAGLVNALNLLKPIKDKYSGVTYADLFQLASATAIEEAGGPKIPMKYGRVDVTEPEQCPEEGRLPDAGPPSPAQHLRDVFYRMGLNDKEIVALSGAHTLGRSRPDRSGWGKPETKYTKDGPGAPGGQSWTAQWLKFDNSYFKDIKERRDEDLLVLPTDAALFEDPSFKVYAEKYAADPEAFFKDYAEAHAKLSNLGAKFGPAEGFSLEGSPAGAAPEKFVAAKYSTGKD | soluble |
| AATTGYDAVDDLLHYHERGNGIQINGKDSFSNEQAGLFITRENQTWNGYKVFGQPVKLTFSFPDYKFSSTNVAGDTGLSKFSAEQQQQAKLSLQSWADVANITFTEVAAGQKANITFGNYSQDRPGHYDYGTQAYAFLPNTIWQGQDLGGQTWYNVNQSNVKHPATEDYGRQTFTHEIGHALGLSHPGDYNAGEGNPTYNDVTYAEDTRQFSLMSYWSETNTGGDNGGHYAAAPLLDDIAAIQHLYGANLSTRTGDTVYGFNSNTGRDFLSTTSNSQKVIFAAWDAGGNDTFDFSGYTANQRINLNEKSFSDVGGLKGNVSIAAGVTIENAIGGSGNDVIVGNAANNVLKGGAGNDVLFGGGGADELWGGAGKDIFVFSAASDSAPGASDWIRDFQKGIDKIDLSFFNKEANSSDFIHFVDHFSGTAGEALLSYNASSNVTDLSVNIGGHQAPDFLVKIVGQVDVATDFIV | soluble |
| ADNEEDVEAEEEYTELTDISGVGPSKAESLREAGFESVEDVRGADQSALADVSGIGNALAARIKADVGGLEVESETEAEVEEEGGEEAPDEDVETELQARGLTEKTPDLSDEDARLLTQRHRVGKPQFNRQDHHKKKRVSTSWRKPRGQLSKQRRGIKGKGDTVEAGFRSPTAVRGKHPSGFEEVRVHNVDDLEGVDGDTEAVRIASKVGARKRERIEEEAEDAGIRVLNPTYVEVEVSE | soluble |
| ADPALADVCRTKLPSQAQDTLALIAKNGPYPYNRDGVVFENRESRLPKKGNGYYHEFTVVTPGSNDRGTRRVVTGGYGEQYWSPDHYATFQEIDPRC | soluble |
| AEALAAGQRRIAKGERDFKDRVGFLRGRARPASTLITRFIADHQGHREGPDGLRWGVESICTQLTELGVPIAPSTYYDHINREPSRRELRDGELKEHISRVHAANYGVYGARKVWLTLNREGIEVARCTVERLMTKLGLSGTTRGKARRTTIADPATARPADLVQRRFGPPAPNRLWVADLTYVSTWAGFAYVAFVTDAYARRILGWRVASTMATSMVLDAIEQAIWTRQQEGVLDLKDVIHHTDRGSQYTSIRFSERLAEAGIQPSVGAVGSSYDNALAETINGLYKTELIKPGKPWRSIEDVELATARWVDWFNHRRLYQYCGDVPPVELEAAYYAQRQRPAAG | soluble |
| AEEELETPTPTQRGEAESRGDGLVDVMWEYKWENTGDAELYGPFTSAQMQTWVSEGYFPDGVYCRKLDPPGGQFYNSKRIDFDLYT | soluble |
| AEEHEHHHHDEEHAHHHHHEGSEVDEYGISTFVYYRRPAFDIHKFDRFVSTQWSRNIIRAKGVCYFSNNRDMSFLFEQAGVQKKLKEAGLWYATAPEEELIEVIRQEPGLLRDWDDKYGDRMQKIVFIGRHLDKEELIRELDECLE | not soluble |
| AEFKHVFVCVQDRPPGHPQGSCAQRGSREVFQAFMEKIQTDPQLFMTTVITPTGSMNACMMGPVVVVYPDGVWYGQVKPEDVDEIVEKHLKGGEPVERLVISKGKPPGMF | soluble |
| AEKRIGLMLFGKGNIGSRWLELFAREQTTLSARTGFEFILAGVVDSKRSLLNYDGLDASRALAFFNDEAVEQDEESLFLWMRAHPYDDLVVLDVTASEQLADQYLDFASHGFHVISANKLAGASSSDKYRQIHDAFEKTGRHWLYNATVGAGLPVNHTVRDLIDSGDTILGLSGIFSGTLSWLFLQ | not soluble |
| AELTALESLIEMGFPRGRAEKALALTGNQGIEAAMDWLMEHEDDPDVDEPL | soluble |
| AEVRPPFTYASLIRQAILESPEKQLTLNEIYNWFTRMFPYFRRNAATWKNAVRHNLSLHKYFVRVENVKGAVWTVDEVEFQKRRPQK | soluble |
| AFTFLHTADLHLDAPLRAVALRDPELAAEIGVASRTAFSRIVDLCLAEAVAFLVIAGDLWDGTYSSTKTPRFLKQELLRLEAAGIGCYILRGNHDALARQTGELEAPANTTVFGARPSTVELSIDGQPVALHGLSFREPHAPESLLPRYPAPKPGAFNLGLMHTSLNGSPGHDPYAPCSLAELEAHGYDYWALGHIHRRFVHRGRATVVMPGTPQGRDIGEAGAASVTLVQVGDDGAVTLEERSVA | not soluble |
| AGFMVPTTNTAGWGRAMAGGSLFPNDPSAAFNNPAAMAFIDKRIAQLTVNYADIDIKYNGDAYDYQGNPMTGGYQDGPGTPELGTNDGGQAGFGAWLPTGFLVVPINDRFAFGLSQVVPMGMRSTWDPNWKGRDFAVDTKIETIGLTGSLSFKVNDNFSLGAGVIIQRTSGFVSQNLDLYASAANSPGMGGIPFPASNSSALMRVKVDNTSPGFFAGAVWKPTDRDTLGFAYHAKIRNKLKGHYNLYDHDGGLTEGAIEGGTPGLAYPGLDLRMGASASARLDIPAYASLDWVHQFNDRLSLGASATWTEWSSFQDLTLKSHGNTIVSIPYTYRNTWTLAVGGDYKVTDQWTMRAGVAYDQTPTHNATRDPRIPDGDRYFASLGAGYRFQSMPELSIDAAYSRQFVKEVPLKTVNQDRLGGGRLDGRATSKGQVFSLSATYDFHHHHHHHH | soluble |
| AGFQLNEFSSSGLGRAYSGEGAIADDAGNVSRAPALITMFDRPTFSAGAVYIDPDVNISGTSPSGRSLKADNIAPTAWVPNMHFVAPINDQFGWGASITSNYGLATEFNDTYAGGSVGGTTDLETMNLNLSGAYRLNNAWSFGLGFNAVYARAKIERFAGDLGQLVAGQIMQSPAGQTQQGQALAATANGIDSNTKTAHLNGNQWGFGWNAGILYELDKNNRYALTYRSEVKIDFKGNYSSDLNRAFNNYGLPIPTATGGATQSGYLTLNLPEMWEVSGYNRVDPQWAIHYSLAYTSWSQFQQLKATSTSGDTLFQKHEGFKDAYRIALGTTYYYDDNWTFRTGIAFDDSPVPAQNRSISIPDQDRFWLSAGTTYAFNKDASVDVGVSYMHGQSVKINEGPYQFESEGKAWLFGTNFNYAFHHHHHH | soluble |
| AGGGYWHTSGREILDANNVPVRIAGINWFGFETCNYVVHGLWSRDYRSMLDQIKSLGYNTIRLPYSDDILKPGTMPNSINFYQMNQDLQGLTSLQVMDKIVAYAGQIGLRIILDRHRPDCSGQSALWYTSSVSEATWISDLQALAQRYKGNPTVVGFDLHNEPHDPACWGCGDPSIDWRLAAERAGNAVLSVNPNLLIFVEGVQSYNGDSYWWGGNLQGAGQYPVVLNVPNRLVYSAHDYATSVGPQTWFSDPTFPNNMPGIWNKNWGYLFNQNIAPVWLGEFGTTLQSTTDQTWLKTLVQYLRPTAQYGADSFQWTFWSWNPDSGDTGGILKDDWQTVDTDKDGYLAPIKSSIFDPV | soluble |
| AGYPPASPSNLSCLMHLTTNSLVCQWEPGPETHLPTSFILKSFRSRADCQYQGDTIPDCVAKKRQNNCSIPRKNLLLYQYMAIWVQAENMLGSSESPKLCLDPMDVVKLEPPMLQALDIGPDVVSHQPGCLWLSWKPWKPSEYMEQECELRYQPQLKGANWTLVFHLPSSKDQFELCGLHQAPVYTLQMRCIRSSLPGFWSPWSPGLQLRPTMKA | soluble |
| AHHHHHHGSDLERALNAFHSMKVNQLTPPCSQMPIVEEDSPIIDVLKLLRTRHHVWVVNNRKDMKLVGIIRYLDIIDIFLPPKGARLGAVSSVFKSILSGAEKAGDIMERNFLTINEDATVLEALEKMKRYKIQILALIDEEGKLKGEISLRILINEFLRLIRVGGG | soluble |
| AHHHHHHGSGRIISIVSGKGGTGKTTVTANLSVALGDRGRKVLAVDGDLTMANLSLVLGVDDPDVTLHDVLAGEANVEDAIYMTQFDNVYVLPGAVDWEHVLKADPRKLPEVIKSLKDKFDFILIDCPAGLQLDAMSAMLSGEEALLVTNPEISCLTDTMKVGIVLKKAGLAILGFVLNRYGRSDRDIPPEAAEDVMEVPLLAVIPEDPAIREGTLEGIPAVKYKPESKGAKAFVKLAEEIEKLAGLKARVMY | not soluble |
| AHHHHHHGSIDAHAHIEFFKKNQEEIIEEAKRKLRGVVDSITEYRKTHVWKSWELLKDYFDFIFPTLGYHPNEARRGNWEKVRKVEDFILKHQKEIFGIGEIGLDYYHAKTKAERDAQREIFVHFLELAKELNLPVVIHAREAEKEALEIINRYDIPSYFHSYTGSVEVAREIVDGGHILGISTGIVFIPEVREVAKNIEIEYLVVETDAPYMSPYKGIRNKPIFVEVAIEELAKIKGMDKTEVEAVTEVNTIKFFSLPL | soluble |
| AHHHHHHGSIHIIEEYFRPYPARKKVAQILWEAGMSVKDGKIYVKGVEVPISGIAQVAGVNRKIVYHTIEYIESKPALKLLFENLSPRTSLISIAPLMGWEVLELTIQKGKYEKTLAKVLESLAERRVRVIEIFGSNPYEEKSKAFLVVEGIVPFEVISSLREEGSLERIVIHTPEKEKERMICPKCEIKYCPRKIFISTR | soluble |
| AHHHHHHGSILKMLESRGITLERMVETALELYIGEKRDAIKEKVRELMLHYLEDINVQALLMAALMLEEKFNVEGDPVNLVADELIGIDIAEYIGGKMALFNFFYYDTKKPGILRELPPFLDDAIGGFIAGCMTLLFHIPQKNSNGGNL | soluble |
| AHHHHHHGSKRVWLVIPDTNFLFIPGQFGVDIISELERILDVNYKIVIPNIVLEELKTILREGKLRGKDLIAARMALKLAERFPTIYVGDFMSKTTDELIYEFAISNDNVIVCTNDKQLRKRLREAGVPVVFLRQKKKLELEGMLG | soluble |
| AHHHHHHGSLKLVENVVGRVSEEENKVPEVQVPQSSIDEELKKIVEQIKARIYVVGVGGAGCNTVNRMMEVGVTGAKIIAVNTDAQDLLKVKAHQKILIGKELTRGLGAGNDPKIGEEAAKESERELRDALEGADMVFITCGLGGGTGTGAAPVIAEIARKMGALTVSVVTLPFTMEGIRRAKNAEYGLKRLVKYSDTVIVIPNDKLLEVAPKLPIQMAFKVADEILVQAVKGITELITKPGLVNLDFNDVRAVMKDGGVAMIGIGESDSEKRALEAAEQALNSPLLDVDISGATGALIHISGADVKLEEAQQIIEYVTRNVDPKAQVIWGIQLEPELEKTIRVMVVITGVTSRYITPEEETPLETPEESPSIEISIPEL | soluble |
| AHHHHHHGSPIRKVMKANEAAAWAAKLAKPKVIAAFPITPSTLIPEKISEFVANGELDAEFIKVESEHSAISACVGAAAAGVRTFTATASQGLALMHEILFIAAGMRLPIVMAIGNRALSAPINIWNDWQDTISQRDTGWMQFYAENNQEALDLILIAYKVAEDERVLLPAMVGFDAFILTHTVEPVEIPDQEVVDEFLGEYEPKHAYIDPARPITQGSLAFPAHYMESRYTVWEAMERAKKVIDEAFAEFEKKFGRKYQKIEEYKTEDADIIFVTMGSLAGTLKEWIDKKREEGYKVGAAKITVYRPFPVEEIRELAKKAKVLAFLEKNITIGLYGAVFTDASAALINESEKPLMVDFIVGLGGRDVTFNQLDEALEIAEKALKEGKVENPINWIGLRWELVK | soluble |

— the DeepSol protein solubility set
